Test results reported in article PMC5778458.
Like-named read-outs stand apart in the source and are kept apart here.

T1: Cbf5p;Nop10p;Gar1p;Nhp2p (Saccharomyces cerevisiae;Saccharomyces …, UniProt P33322;Q6Q547;P28007;P32495 1-483;1-58;1-205;1-156, |||)
T1 sequence 1: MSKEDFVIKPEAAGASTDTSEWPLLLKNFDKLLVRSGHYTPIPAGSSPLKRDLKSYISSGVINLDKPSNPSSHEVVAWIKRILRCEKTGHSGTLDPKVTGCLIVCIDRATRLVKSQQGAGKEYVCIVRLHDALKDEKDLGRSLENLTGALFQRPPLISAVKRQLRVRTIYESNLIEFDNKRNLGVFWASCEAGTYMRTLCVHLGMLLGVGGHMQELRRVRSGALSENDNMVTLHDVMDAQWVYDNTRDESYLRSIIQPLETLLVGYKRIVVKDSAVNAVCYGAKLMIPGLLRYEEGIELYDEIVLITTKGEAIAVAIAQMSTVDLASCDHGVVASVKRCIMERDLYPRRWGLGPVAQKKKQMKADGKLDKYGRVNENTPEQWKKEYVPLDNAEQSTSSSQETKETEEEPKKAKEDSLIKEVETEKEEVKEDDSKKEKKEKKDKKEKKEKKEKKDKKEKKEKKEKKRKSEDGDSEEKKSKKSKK
T1 sequence 2: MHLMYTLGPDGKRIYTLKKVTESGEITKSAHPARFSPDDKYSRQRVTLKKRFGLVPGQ
T1 sequence 3: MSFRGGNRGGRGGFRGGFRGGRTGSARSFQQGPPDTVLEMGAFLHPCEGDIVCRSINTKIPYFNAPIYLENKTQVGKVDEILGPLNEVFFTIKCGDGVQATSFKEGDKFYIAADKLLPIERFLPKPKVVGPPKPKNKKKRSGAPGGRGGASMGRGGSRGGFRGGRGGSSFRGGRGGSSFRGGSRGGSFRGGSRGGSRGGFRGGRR
T1 sequence 4: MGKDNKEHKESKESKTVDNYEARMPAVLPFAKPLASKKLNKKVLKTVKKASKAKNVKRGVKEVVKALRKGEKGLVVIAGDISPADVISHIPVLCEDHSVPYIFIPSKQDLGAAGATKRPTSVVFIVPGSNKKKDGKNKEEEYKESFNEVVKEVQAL

T2: Cbf5p;Nop10p;Gar1p (Saccharomyces cerevisiae;Saccharomyces …, UniProt P33322;Q6Q547;P28007 1-483;1-58;1-205, ||)
T2 sequence 1: T1 sequence 1
T2 sequence 2: T1 sequence 2
T2 sequence 3: T1 sequence 3

B1: snR34 5' HP extended stem (structured_RNA)
RNA: GGGAAUCAAAAAUUUAUUUUUUACACGGAAACGAUGCCACAGUUGACUGAACCUGUCUUCUAACAGUAGUUAAUUGCCAGUAUUUCCGUGUAAACAAGA

Legend:
Assay in all cases: filter binding
[1] = molecular target: T1, Cbf5p;Nop10p;Gar1p;Nhp2p
[2] = molecular target: T1, Cbf5p;Nop10p;Gar1p;Nhp2p; remark: listed apart in the source
[3] = molecular target: T2, Cbf5p;Nop10p;Gar1p
[4] = molecular target: T1, Cbf5p;Nop10p;Gar1p;Nhp2p; remark: listed apart in the source

| Binder | Kd [3] [nM] | Kd [4] [nM] | also measured |
| --- | --- | --- | --- |
| B1 | – | – | Kd [1]: 1.3 ± 0.5 nM |
| GGGGACAACUGGCUUGUGGCAGCCA (mixed) [snR34 guide + 5' substrate RNA] | 50 ± 20 | – | Kd [2]: 53 ± 22 nM |
| GGGACGUCGGCUCUUCCUAUCAUACC (mixed) [snR34 guide + 3' substrate RNA] | 90 ± 20 | – | – |
| GGGACGUCGGCUCUUCCUAUCAUACC (mixed) [snR34 delta Box H guide + 3' substrate RNA] | – | 90 ± 30 | – |
| GGGACGUCGGCUCUUCCUAUCAUACC (mixed) [snR34 delta Box ACA guide + 3' substrate RNA] | – | 150 ± 30 | – |
